Measured values published in article PMC6601351 (Structure (London, England : 1993), 2018).

B1: KNL1_(23–80) (domain or fragment, human, UniProt Q8NG31 23-80, looked up)
chain: HSSILKPPRSPLQDLRGGNERVQESNALRNKKNSRRVSFADTIKVFQTESHMKIVRKS
B2: KNL1_(1–150) (domain or fragment, human, UniProt Q8NG31 1-150, looked up)
chain: MDGVSSEANEENDNIERPVRRRHSSILKPPRSPLQDLRGGNERVQESNALRNKKNSRRVSFADTIKVFQTESHMKIVRKSEMEGCSAMVPSQLQLLPPGFKRFSCLSLPETETGENLLLIQNKKLEDNYCEITGMNTLLSAPIHTQMQQK
B3: KNL1_(1–80) (domain or fragment, human, UniProt Q8NG31 1-80, looked up)
chain: MDGVSSEANEENDNIERPVRRRHSSILKPPRSPLQDLRGGNERVQESNALRNKKNSRRVSFADTIKVFQTESHMKIVRKS

These molecules were tested against PP1γ_(7–300) (human, UniProt P36873 7-300) (assay: ITC).
Chain of PP1γ_(7–300) (P36873 7-300): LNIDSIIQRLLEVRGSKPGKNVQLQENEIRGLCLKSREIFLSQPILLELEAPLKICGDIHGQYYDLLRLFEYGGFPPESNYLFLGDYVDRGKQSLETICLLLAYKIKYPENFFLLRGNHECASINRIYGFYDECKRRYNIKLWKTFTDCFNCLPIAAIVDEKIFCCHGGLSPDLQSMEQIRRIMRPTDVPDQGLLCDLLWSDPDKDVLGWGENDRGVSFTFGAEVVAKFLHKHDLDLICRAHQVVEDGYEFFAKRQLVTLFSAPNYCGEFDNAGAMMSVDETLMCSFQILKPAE

Row | Kd [nM] | dH [kcal/mol] | Molecule
1 | 82 | -28.3 | B1

Each molecule was assayed against PP1γ_(7–323) (human, UniProt P36873 7-323) (assay: ITC).
Chain of PP1γ_(7–323) (P36873 7-323): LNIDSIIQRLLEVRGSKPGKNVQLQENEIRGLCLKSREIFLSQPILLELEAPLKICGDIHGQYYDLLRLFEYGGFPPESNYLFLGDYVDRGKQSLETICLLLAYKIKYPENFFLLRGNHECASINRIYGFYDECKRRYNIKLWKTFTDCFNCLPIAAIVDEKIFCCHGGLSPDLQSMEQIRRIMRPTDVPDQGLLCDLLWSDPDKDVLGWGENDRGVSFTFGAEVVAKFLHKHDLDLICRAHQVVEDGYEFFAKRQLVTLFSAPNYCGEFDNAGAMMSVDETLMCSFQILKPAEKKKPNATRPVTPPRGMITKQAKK

Row | Kd [nM] | dH [kcal/mol] | Molecule
2 | 55.2 | -9.3 | B2
3 | 52.4 | -10 | B1
4 | 38.3 | -8.6 | B3

Each molecule was assayed against PP1α_(7–330) (human) (UniProt P62136) (assay: ITC).

Row | Kd [nM] | dH [kcal/mol] | Molecule
5 | 267 | -10.9 | KNL1_(1–80)S24DS25D (from UniProt Q8NG31 1-80) (domain or fragment)
6 | 228 | -21.5 | KNL1_(1–80)SILK/AAAA (SILK_(dead)) (from UniProt Q8NG31 1-80) (domain or fragment)
7 | 89 | -13.7 | KNL1_(23–80) (from UniProt Q8NG31 23-80) (domain or fragment)
8 | 93.5 | -21.5 | KNL1_(1–80)S24AS25A (from UniProt Q8NG31 1-80) (domain or fragment)
9 | 14.7 | -12.4 | KNL1_(1–80)S56D (from UniProt Q8NG31 1-80) (domain or fragment)
10 | 46.4 | -22.6 | KNL1_(1–80) (from UniProt Q8NG31 1-80) (domain or fragment)
11 | 236 | -30.7 | KNL1_(1–80)S60D (from UniProt Q8NG31 1-80) (domain or fragment)
12 | 154 | -20.1 | KNL1_(1–80)S60A (from UniProt Q8NG31 1-80) (domain or fragment)
